pKd: −log10 of the molar value. Where “and” joins values, the source holds several entries; their conditions need not be identical. Identical values can stand only once.
How the values were obtained:
[1] = biological target: FcγRIIIA-streptavidin fusion protein (tetramer) (human; Streptomyces avidinii) (UniProt P08637); assay: ELISA: antibody captured on protein A/G, FcγRIIIA tetramer (streptavidin fusion), biotin-HRP, OD450
[2] = biological target: FcγRIIIA (soluble receptor used as analyte in the BIAcore runs) (human) (UniProt P08637); assay: BIAcore run 1, IgG immobilized, soluble FcγRIIIA, Scatchard plot
FcγRIIIA (soluble receptor used as analyte in the BIAcore runs) (human), sequence (P08637 17-208): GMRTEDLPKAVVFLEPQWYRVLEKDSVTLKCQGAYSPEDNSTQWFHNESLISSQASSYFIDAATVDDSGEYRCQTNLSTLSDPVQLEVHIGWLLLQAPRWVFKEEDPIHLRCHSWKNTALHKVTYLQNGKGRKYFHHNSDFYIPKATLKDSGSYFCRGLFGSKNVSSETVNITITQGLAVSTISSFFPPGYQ

[3] = biological target: FcγRIIIA (soluble receptor used as analyte in the BIAcore runs) (human) (UniProt P08637); assay: BIAcore run 2, IgG immobilized, soluble FcγRIIIA, Scatchard plot
[4] = biological target: FcγRIIIA (soluble receptor used as analyte in the BIAcore runs) (human) (UniProt P08637); assay: BIAcore run 1, IgG immobilized, soluble FcγRIIIA, steady-state isotherm
[5] = biological target: FcγRIIIA (soluble receptor used as analyte in the BIAcore runs) (human) (UniProt P08637); assay: BIAcore run 2, IgG immobilized, soluble FcγRIIIA, steady-state isotherm
[6] = biological target: FcγRIIB-streptavidin fusion protein (tetramer) (human; Streptomyces avidinii) (UniProt P31994); assay: ELISA: antibody captured on protein A/G, FcγRIIB-streptavidin, biotin-HRP, OD450

EC50 (read off the curve) [1] [µg/mL] | EC50 (read off the curve) [6] | Substance | other results
0.05 | – | 3F2-1M (3F2 Fc variant I332E, IgG1) (from UniProt P01857 1-330) (antibody) | –
0.05 | – | 3F2-3M (3F2 Fc variant S239D/A330L/I332E, IgG1) (from UniProt P01857 1-330) (antibody) | –
– | 0.4 µg/mL and 0.3 µg/mL | Vitaxin® (wild type IgG1 antibody) | pKd [2]: 5.49; pKd [3]: 5.12; pKd [4]: 5.46; pKd [5]: 5.05
– | 0.3 µg/mL | Vitaxin®-1M (Vitaxin® Fc variant I332E, IgG1) (from UniProt P01857 1-330) (antibody) | –

— US20060039904A1
